# Tests used:
# STAT1 = assay: Western blot of STAT1 in A375 cells; type: cell-based, human; details: interferon alone
# Experimental: FIG. 3. […] A375 cells were treated with 100 units/mL and 250 units/mL of IFN-γ or IFN-α for 24 hours; whole cell lysates and nuclear extracts were used for Western blot analysis to detect STAT3 and pSTAT3 respectively. […] Protein isolation and Western blotting. All samples were kept at 4° C. unless otherwise noted.
# The membranes were blocked using 10% non-fat milk (NOS1, STAT1/2, Actin, Lamin A/C) or 5% bovine serum albumin (BSA; SH3057402; Fisher Scientific, Waltham, MA) (p-STAT1/3), then incubated with primary antibodies for 1 hour at room temperature or overnight at 4° C., followed by secondary antibodies for 1 hour at room temperature as recommended by the manufacturer. Blots were washed extensively with TBS-T after each antibody incubation.
# PD-L1 in A375 cells = assay: PD-L1 expression by immunofluorescence staining; type: cell-based, human; details: interferon alone, 250 Units/ml, 72 hours
# Experimental: FIG. 5. Expression of PD-L1 in metastatic melanoma A375 cells detected by immunofluorescence staining. […]. Cells were then fixed and permeabilized with 4% formaldehyde and methanol. Samples were blocked in blocking buffer containing 5% horse serum for 1 hour. The slides were then allowed to incubate in a 1:50 PD-L1 antibody dilution overnight at 4° C. and DAPI reagent for 1 hour. Representative images are shown stained with PD-L1 antibody (green) and DAPI (blue fluorescence). (Original magnifications, 100×). Representative images for 2 experimental replicates are shown.
# Expression levels of PD-L1 detected by Immunofluorescence. A375 cells were plated on coverslips and incubated with 250 units/mL of IFN-α or IFN-γ in the presence or absence of […] of nNOS inhibitors for 72 hours. After treatment, cells on coverslips were fixed with 4% formaldehyde/PBS for 15 minutes at room temperature, followed by incubation with ice-cold 100% methanol for 10 minutes at −20° C. Samples were then incubated in blocking buffer (1×PBS, 5% horse serum, 0.3% Triton X-100) for 60 minutes, then in a 1:50 PD-L1 antibody dilution in dilution buffer (1×PBS, 1% BSA, 0.3% Triton X-100) overnight at 4° C. Stained specimens were rinsed with PBS then cured in the dark with DAPI fluorescence staining reagent for 1 hour. Slides were visualized and recorded using the BZ-X700 microscope (Keyence, Itasca, IL).
# [1] = test system: Human A375 metastatic melanoma xenograft; assay: A375 melanoma xenograft, IFN-γ with or without MAC-3-190; type: in vivo, nude mice
# Experimental: FIG. 6. […] Data was represented as mean±SD.
# FIG. 7. Expression of PD-L1 in xenograft tumor samples obtained from the subject is administered an inhibitor of NOS and further is administered study detected by immunohistochemistry staining. PD-L1 staining (brown) of specimens at 100× (A) and 20× (B) magnification. […] . PD-L1 (C) and CD8 (D) stained specimens captured at 2× magnification.
# In Vivo Xenograft Melanoma. […] .
# [2] = test system: nNOS expression in WM3211 cells; assay: Western blot of nNOS expression in primary melanoma WM3211 cells; type: cell-based, human; details: IFN-γ persisted after 96 hours, IFN-α within 4 hours, recovered by 24 hours
# Experimental: (§1) FIG. 2. A-C) Effects of IFN-α and IFN-γ treatment on nNOS expression levels in human primary melanoma WM3211 cells (A-B) and metastatic melanoma A375 cells. C) Distinct effects of IFN-α and IFN-γ on nNOS expression of A375 metastatic melanoma cells. A375 cells were treated with 500 units/mL of IFN-α or IFN-γ for 48 hours and whole cell lysates were collected. Samples were subjected to Western blot analysis for nNOS. A control of the protein loading was performed by detecting actin. D) Intracellular nitric oxide levels detected by microplate reader using DAF-FM fluorescence probe after IFN-α or IFN-γ treatment for 24 hours. E) IFN-γ-inducible nNOS expression was abrogated in nNOS-depleted melanoma cells. A375 cells transfected with shRNA-nNOS were treated with IFN-γ for 24 hours, followed by Western blot analysis.
# Protein isolation and Western blotting. All samples were kept at 4° C. unless otherwise noted. […]
# Equal amounts of protein, as detected by Bradford assay, were loaded and resolved on 7.5% SDS-polyacrylamide gels, then transferred to Immobilon-P^SQ polyvinylidene difluoride (PVDF) membranes (ISEQ00010; Merck KGaA, Darmstadt, Germany). […] Labeled bands were detected using SuperSignal horseradish peroxidase chemiluminescence reagents (1859674; 1859675; Thermo Fisher Scientific, Waltham, MA) and images were captured and analyzed using the Bio-Rad ChemiDoc XRS^+ System.
# [3] = test system: intracellular NO in melanoma cells; assay: Intracellular nitric oxide levels, DAF-FM fluorescence probe; type: cell-based, human; details: DAF-FM probe after interferon exposure
# Experimental: as §1
# Detection of intracellular nitric oxide levels. Cultured cells in a 96-well plate were treated with 100 units/mL of IFN-α or IFN-γ for 48 hours. Once the incubation period was complete, the media was removed and replaced with Hank's Balanced Salt Solution (HBSS). 1 μM of 4-Amino-5-methylamino-2′,7′-difluorofluorescein (DAF-FM) probe was added to each condition and fluorescence levels produced by DAF-FM were detected using a fluorescence microplate reader with excitation and emission wavelengths of 485 and 538 nm, respectively.
molecule,measurement,setting,value
"IFN-γ: Interferon-gamma, purchased from Invitrogen (protein, UniProt P01579 24-161, looked up) Interferon gamma: QDPYVKEAENLKKYFNAGHSDVADNGTLFLGILKNWKEESDRKIMQSQIVSFYFKLFKNFKDDQSIQKSVETIKEDMNVKFFNSNKKKRDDFEKLTNYSVTDLNVQRKAIHELIQVMAELSPAAKTGKRKRSQMLFRG",expression of STAT1,STAT1,higher induction
same,extracellular expression of PD-L1,PD-L1 in A375 cells,markedly induced
same,PD-L1-positive staining in xenograft tumors (immunohistochemistry),"[1]; 21-day treatment, IFN-γ 1000 units per mouse i.p. daily, with or without MAC-3-190 5 mg/kg/day",> 20%
same,tumor growth in vivo,"[1]; IFN-γ 1000 units/day, 21 days",significantly stimulated
same,nNOS expression levels,[2],markedly induced
same,intracellular NO levels,[3],elevated

# Reference: patent US12083113B2, “Use of neuronal nitric oxide synthase inhibitors for immunotherapy in melanoma patients” (Northwestern University, priority 2018, dated 2024)
